First the molecules themselves.
B1: brain-derived neurotrophic factor (BDNF) (ligand, UniProt P23560 129-247, looked up)
chain: HSDPARRGELSVCDSISEWVTAADKKTAVDMSGGTVTVLEKVPVSKGQLKQYFYETKCNPMGYTKEGCRGIDKRHWNSQCRTTQSYVRALTMDSKKRIGWRFIRIDTSCVCTLTIKRGR
B2: Fc-fused recombinant human P75 (Fc fusion, UniProt P08138 29-250, looked up)
chain: KEACPTGLYTHSGECCKACNLGEGVAQPCGANQTVCEPCLDSVTFSDVVSATEPCKPCTECVGLQSMSAPCVEADDAVCRCAYGYYQDETTGRCEACRVCEAGSGLVFSCQDKQNTVCEECPDGTYSDEANHVDPCLPCTVCEDTERQLRECTRWADAECEEIPGRWITRSTPPEGSDSTAPSTQEPEAPPEQDLIASTVAGVVTTVMGSSQPVVTRGTTDN
notes: Bought from R&D Systems or made in-house; also called p75 neurotrophin receptor; LNGFR; not shown: Fc part
B3: NT3 (ligand, UniProt P20783 139-257, looked up)
chain: YAEHKSHRGEYSVCDSESLWVTDKSSAIDIRGHQVTVLGEIKTGNSPVKQYFYETRCKEARPVKNGCRGIDDKHWNSQCKTSQTYVRALTSENNKLVGWRWIRIDTSCVCALSRKIGRT
notes: 'native ligands' bought from R&D Systems or made in-house
B4: NT4/5 (ligand, UniProt P34130 81-210, looked up)
chain: GVSETAPASRRGELAVCDAVSGWVTDRRTAVDLRGREVEVLGEVPAAGGSPLRQYFFETRCKADNAEEGGPGAGGGGCRGVDRRHWVSECKAKQSYVRALTADAQGRVGWRWIRIDTACVCTLLSRTGRA

Holding throughout (experiment): SPR (Biacore 3000), Fc-fused receptor amine-coupled to CM5 chip, ligand in solution, 25 C
(Surface plasmon resonance follows binding to a sensor surface in real time, without labels.)

In assay [1] the target is B2. How it is done: (§1) A standard amine-coupling protocol was used in HBS-EP running buffer at 5 μl/min and involved three steps. […]. First, flow cells were activated with a 7-minute injection of a freshly prepared mixture of 200 mM EDC in 50 mM NHS; this step converted the chip's carboxylic acid groups to reactive esters. Next, receptors were diluted to ˜10 μg/mL in 10 mM sodium acetate buffer at pH 4.5 and coupled to the chip until the desired level had been reached. Finally, excess reactive esters were blocked with a 7-minute injection of 1M sodium ethanolamine-HCl (pH 8.5).
(§2) The Fab fragment of antibody 200.38B8 (38B8) was diluted from 0.7-480 nM in 3-fold increments. Samples were injected for 30 seconds at 100 μl/min allowing dissociation times of up to 10 mins. After each binding cycle, receptor surfaces were regenerated with a mildly acidic cocktail (10 mM glycine-HCl (pH 4.0), 500 mM NaCl, and 20 mM EDTA). […] Kinetic rate constants (kon and koff) were determined by fitting the binding data globally to a mass transport model and binding affinities were calculated from their ratio, KD=koff/kon.

In assay [2] the target is T1, human TrkB-Fc fusion protein (human, UniProt Q16620 32-430).
T1 construct: Bought from R&D Systems or made in-house; also called HuTrkB; Fc-fused recombinant human TrkB; not shown: Fc part
T1 sequence (Q16620 32-430 limits assumed): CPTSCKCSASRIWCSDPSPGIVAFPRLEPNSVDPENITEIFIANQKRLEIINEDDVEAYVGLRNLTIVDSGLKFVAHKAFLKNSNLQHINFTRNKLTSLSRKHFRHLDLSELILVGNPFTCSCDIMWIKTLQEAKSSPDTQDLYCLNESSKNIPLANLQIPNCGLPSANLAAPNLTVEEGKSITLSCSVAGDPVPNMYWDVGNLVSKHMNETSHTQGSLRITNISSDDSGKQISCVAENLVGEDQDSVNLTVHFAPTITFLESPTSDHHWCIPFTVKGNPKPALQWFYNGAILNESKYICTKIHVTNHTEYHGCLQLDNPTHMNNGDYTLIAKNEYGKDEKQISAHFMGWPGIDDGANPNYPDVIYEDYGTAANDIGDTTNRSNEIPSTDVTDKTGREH
How it is done:
as §1, §2

The target in assay [3] is ProNGF (UniProt P01138 19-241). How it is done:
as §1, §2

The target in assay [4] is T2, Fc-fused recombinant human TrkA (human, UniProt P04629-2 33-407, limits assumed).
T2 construct: Bought from R&D Systems or made in-house; not shown: Fc part
T2 sequence (P04629 other isoform, or with tags, fused parts or gaps limits assumed): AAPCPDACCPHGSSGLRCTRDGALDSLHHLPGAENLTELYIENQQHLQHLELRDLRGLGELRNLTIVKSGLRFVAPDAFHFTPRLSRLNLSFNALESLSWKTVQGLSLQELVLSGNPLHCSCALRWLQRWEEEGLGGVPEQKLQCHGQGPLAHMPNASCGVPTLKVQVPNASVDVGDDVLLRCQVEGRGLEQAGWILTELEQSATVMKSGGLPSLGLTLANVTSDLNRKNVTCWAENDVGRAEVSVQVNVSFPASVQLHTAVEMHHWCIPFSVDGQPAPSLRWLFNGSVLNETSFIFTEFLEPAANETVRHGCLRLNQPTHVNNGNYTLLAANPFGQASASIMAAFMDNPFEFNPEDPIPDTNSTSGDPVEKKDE
How it is done:
as §1, §2

The target of assay [5] is T3, Fc-fused recombinant human TrkC (human, UniProt Q16288 32-429).
T3 construct: Bought from R&D Systems or made in-house; not shown: Fc part
How it is done:
as §1, §2

Sequence of ProNGF (P01138 19-241): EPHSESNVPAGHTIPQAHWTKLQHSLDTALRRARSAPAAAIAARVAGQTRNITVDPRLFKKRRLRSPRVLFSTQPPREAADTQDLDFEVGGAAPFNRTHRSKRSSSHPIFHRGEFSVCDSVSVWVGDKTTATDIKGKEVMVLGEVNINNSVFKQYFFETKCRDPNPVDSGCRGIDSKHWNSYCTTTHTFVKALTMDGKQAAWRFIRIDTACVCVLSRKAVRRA

B1: the Kd – broadly, the equilibrium constant for the complex coming apart – is below 2.1 nM in assay [1] and below 0.034 nM in assay [2].

For the molecule B2, in assay [3], binding was put at a Kd of 130 nM; the koff (commonly the rate constant with which the complex falls apart) was 0.0858 s⁻¹; the kon (in general, the second-order rate constant of association) was found to be 658000 M⁻¹ s⁻¹.

In turn, B3 returned a Kd in assay [2] below 4.4 nM.

For B4, in assay [4], the dissociation constant Kd was found to be 17 nM, the dissociation rate constant (koff) is 0.04 s⁻¹ and the kon worked out at 2.1e+06 M⁻¹ s⁻¹. Moreover, in assay [5], the binding result is listed as “no binding (tested: 0.08-250 nM)”. For the same molecule, in assay [1], the Kd is 88 nM, the koff turned out to be 0.305 s⁻¹ and the kon stood at 3.45e+06 M⁻¹ s⁻¹. Also, in assay [2], the Kd is below 0.2 nM, the koff was determined as 0.002 s⁻¹ and the kon was above 1e+07 M⁻¹ s⁻¹.

These data come from patent US20100086997A1 (published 2010).
